This note sets out measurements from article PMC2173577.

This test concerns the target Grb2, endogenous in Cos-7 cells (African green monkey (endogenous in Cos-7)). Kind of test: co-IP.

In turn, “Sos-1, endogenous in Cos-7 cells (natural protein)” showed a fold excess of the Sos-1–Grb2 complex over the Sos-1–E3b1 complex (co-IP) of 10 fold.
